This assay deals with T1, BAG6, wild type, FLAG-tagged, exogenously overexpressed (pRK5-FLAG-Bag6) (UniProt P46379 1-1132).
T1 construct: BAG6, wild type, from pRK5-FLAG-Bag6 (Liu et al., 2014); In HEK293T cells the anti-BAG6 antibody also precipitates endogenous BAG6; also called wild type BAG6; ^fBAG6; source: HEK293T or BAG6-KO HEK293T, transfected, in lysate; not shown: FLAG, N-terminal, kept
Briefly: co-IP; anti-BAG6 IP from soluble fractions of HEK293T cells overexpressing the fragments and BAG6 or BAG6ΔUBL; blots with anti-TDP43, anti-FLAG or anti-Myc; lysis/wash buffer 50 mM HEPES pH 7.5, 10% glycerol, 0.05% NP-40, 150 mM NaCl, 4°C. The following applies: partners not purified.

T1 sequence (P46379 whole entry): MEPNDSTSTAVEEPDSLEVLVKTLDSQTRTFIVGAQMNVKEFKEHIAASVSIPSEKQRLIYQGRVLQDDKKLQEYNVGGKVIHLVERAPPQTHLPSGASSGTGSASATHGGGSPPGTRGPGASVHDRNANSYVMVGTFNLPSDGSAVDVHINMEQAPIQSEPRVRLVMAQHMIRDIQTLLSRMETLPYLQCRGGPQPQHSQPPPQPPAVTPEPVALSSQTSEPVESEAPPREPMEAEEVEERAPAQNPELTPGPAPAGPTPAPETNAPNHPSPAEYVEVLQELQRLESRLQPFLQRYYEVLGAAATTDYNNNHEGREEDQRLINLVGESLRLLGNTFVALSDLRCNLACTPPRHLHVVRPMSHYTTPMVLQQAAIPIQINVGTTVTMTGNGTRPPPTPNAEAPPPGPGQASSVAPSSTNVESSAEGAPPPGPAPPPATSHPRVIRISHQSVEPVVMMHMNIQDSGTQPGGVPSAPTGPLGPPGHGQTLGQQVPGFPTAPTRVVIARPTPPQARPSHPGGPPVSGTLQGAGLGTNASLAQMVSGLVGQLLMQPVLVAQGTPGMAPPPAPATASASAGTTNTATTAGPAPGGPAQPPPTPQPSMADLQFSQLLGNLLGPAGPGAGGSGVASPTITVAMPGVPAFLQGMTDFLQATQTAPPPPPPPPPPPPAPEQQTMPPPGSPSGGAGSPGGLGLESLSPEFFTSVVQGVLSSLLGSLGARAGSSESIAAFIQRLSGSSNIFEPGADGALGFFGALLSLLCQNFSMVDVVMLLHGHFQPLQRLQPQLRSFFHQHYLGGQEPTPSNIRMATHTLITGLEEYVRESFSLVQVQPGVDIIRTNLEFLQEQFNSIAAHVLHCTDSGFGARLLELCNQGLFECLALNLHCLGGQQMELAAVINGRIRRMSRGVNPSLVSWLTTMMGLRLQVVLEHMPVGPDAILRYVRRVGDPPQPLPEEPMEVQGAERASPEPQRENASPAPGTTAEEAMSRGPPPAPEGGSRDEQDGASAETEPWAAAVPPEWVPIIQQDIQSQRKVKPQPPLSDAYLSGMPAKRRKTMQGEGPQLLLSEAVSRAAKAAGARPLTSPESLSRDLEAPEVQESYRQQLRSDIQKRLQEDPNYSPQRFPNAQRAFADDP

B1: TDP43^219 (Val^219-TDP43^f), C-terminal fragment of human TDP43, amino acids 219 - 414, bearing N-terminal Val and a C-terminal FLAG tag (domain or fragment, UniProt Q13148 219-414, looked up)
chain: VVFIPKPFRAFAFVTFADDQIAQSLCGEDLIIKGISVHISNAEPKHNSNRQLERSGRFGGNPGGFGNQGGFGNSRGGGAGLGNNQGSNMGGGMNFGAFSINPAMMAAAQAALQSSWGMMGMLASQQNQSGPSGNNQNQGNMQREPNQAFGSGNNSYSGSNSGAAIGWGSASNAGSGSGFNGGFGSSMDSKSSGWGM
notes: the part up to the last residue of Ub is cut off co-translationally; not shown: FLAG, C-terminal, kept
With B1, the “fold affinity relative to TDP43^247 (densitometry of the co-immunoprecipitate)” value was around 5 fold.

For the origin of these results see article PMC9079172, “BAG6 prevents the aggregation of neurodegeneration-associated fragments of TDP43” (iScience, 2022).
